Measured values: patent US20250009750A1, “METHODS OF TREATING DISORDERS ASSOCIATED WITH EYA OVEREXPRESSION AND MUTATIONS” (The Board of Regents of the University of Texas System, priority 2023, published 2025)
Numbering of substitutions follows the chain as printed. Numbers in names are those of the source. Entries after “also recorded” stand apart in the source; their conditions may differ.

Assays:
[1] = tested on: cells depleted for EYA4; experiment: MTT cell cytotoxicity assay, genotoxic stress (ATR inhibitor or hydroxyurea); type: cell-based; conditions: EYA4-depleted versus control cells, FIG. 21B, FIG. 22A
Description: For genotoxic stress, cells were seeded into 96-well plates (200 cells/well). Twenty-four hours after seeding, increasing concentrations of ATR inhibitor (AZ20) or hydroxyurea were added to the culture (24 h pulse). Cell cytotoxicity was measured after 96 h following manufacturer's protocol (Abcam ab211091). Briefly, 50 μL serum-free media (no phenol red) and 50 μL MTT reagent was added to each well and incubated at 37° C. for 3 h. MTT media was replaced with 150 μL of MTT solvent and incubated with agitation for 15 mn. Absorbance was measured at 590 nm. The cell viability was calculated using the following equation: […]

[2] = tested on: TKCC02.1 cells; experiment: Survival of TKCC02.1 cells, alone and in combination; type: cell-based; conditions: TKCC02.1, at doses tested, FIG. 35, FIG. 36
Description: Similar doses of EYA4i were tested alone and in combination with PARPi (olaparib) or Camptothecin (CPT).

[3] = tested on: HeLa cells (empty vector or knocked down for EYA4); experiment: MTT cell cytotoxicity assay with PARP inhibitor; type: cell-based; conditions: EYA4-depleted versus control cells, FIG. 5D
Description: HeLa cells (empty vector or knocked down for EYA4) were seeded in 96-well plates. After 24 hrs, increasing concentrations of PARP inhibitor (olaparib) were added. Cell cytotoxicity was measured following manufacturer's protocol (Abcam ab211091). Briefly, 50 μL serum-free media and 50 μL MTT reagent was added to each well and incubated at 37° C. for 3 hrs. MTT media was replaced with 150 μL of MTT solvent and incubated with agitation for 15 min. Absorbance was measured at 590 nm.

[4] = target: cy5-labeled ssDNA; experiment: Microscale thermophoresis (MST) DNA binding, ssDNA
Description: (§1) A total of 12 concentrations of ligand proteins (e.g., EYA (1-365)) were serially diluted by 1:1 using MST buffer from 5 uM to 2.4 nM, 10 ul of each dose of ligand protein was mixed with 10 ul of cy5-labeled dsDNA/ssDNA supernatant. The mixture of EYA and DNA was loaded into premium capillaries for MST assay with parameters set up at auto-detected excitation power and medium MST power. Binding affinity was analyzed by MO. Affinity Analysis software (version 2.1.3, NanoTemper Technologies) using the signal from an MST-on time of 20 s. Three individual experiments were merged to generate standard deviation.
(§2) Cy5-labeled oligo P1 (T. T. Paull Curr Opin Genet Dev 71, 55-62 (2021)). from IDT ([…]-[…]; SEQ ID NO:1) was used as the ssDNA substrate. dsDNA was generated by annealing Cy5-labeled oligo P1 with its exact complement P2 […]-AAATAAGTAAAAG […] (SEQ ID NO:2). The annealed product was purified by SDS-PAGE then concentrated and quantified. For the long system assays, substrates were sourced from NEB. The ssDNA is the ϕX174 virion DNA and the dsDNA its replicative form ϕX174 RF I DNA.

[5] = target: cy5-labeled dsDNA; experiment: Microscale thermophoresis (MST) DNA binding, dsDNA
Description: as §1, §2

[6] = target: T1, RAD51 Y54F,Y315F (UniProt Q06609 Q06609:1-339, Y54F,Y315F); experiment: MST; +/- 7.3 nM, Hill 3.31; conditions: tags: pET11 construct, E. coli BLR(DE3)pLysS; label: Cy5
[7] = target: T2, RAD51 WT (UniProt Q06609 Q06609:1-339); experiment: MST; +/- 18.1 nM, Hill 2.66; conditions: tags: pET11 construct, E. coli BLR(DE3)pLysS; label: Cy5
[8] = target: RAD51 Y54D,Y315D (UniProt Q06609 Q06609:1-339, Y54D,Y315D); experiment: MST; +/- 0.4951 uM, Hill 2.67; conditions: tags: pET11 construct, E. coli BLR(DE3)pLysS; label: Cy5 on P1
[9] = target: T1, RAD51 Y54F,Y315F; experiment: MST; +/- 11.7 nM, Hill 7.07; conditions: tags: pET11 construct, E. coli BLR(DE3)pLysS; label: Cy5 on P1
[10] = target: T2, RAD51 WT; experiment: MST; +/- 162.5 nM, Hill 2.30; conditions: tags: pET11 construct, E. coli BLR(DE3)pLysS; label: Cy5 on P1
[11] = RAD51 proteins binding ssDNA, Table 5
[12] = RAD51 proteins binding dsDNA, Table 5
[13] = EYA4 constructs binding ssDNA, Table 4
[14] = EYA4 constructs binding dsDNA, Table 4

T2 sequence (Q06609 whole entry, one chain of several): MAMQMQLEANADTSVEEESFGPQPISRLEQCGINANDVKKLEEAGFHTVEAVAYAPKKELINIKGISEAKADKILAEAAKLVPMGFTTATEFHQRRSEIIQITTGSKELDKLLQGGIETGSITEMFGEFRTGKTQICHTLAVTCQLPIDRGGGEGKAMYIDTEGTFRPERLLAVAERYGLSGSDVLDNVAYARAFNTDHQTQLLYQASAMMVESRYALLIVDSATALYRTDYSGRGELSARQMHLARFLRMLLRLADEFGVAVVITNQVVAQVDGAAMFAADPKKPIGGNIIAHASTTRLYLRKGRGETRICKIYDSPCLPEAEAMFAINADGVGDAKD

Which “sensitivity of cells depleted for EYA4 (MTT)” value [1] does the source give for `C[C@@H]1COCCN1c1cc(C2(S(C)(=O)=O)CC2)nc(-c2cccc3[nH]ccc23)n1` [AZ20] here?
Its value is “sensitive”.

`CC[C@@]1(O)C(=O)OCc2c1cc1n(c2=O)Cc2cc3ccccc3nc2-1` [CPT] was tested. Which “lethality / efficacy as single agent” value [2] did it give?
The value was “not lethal; also recorded: neither PARPi nor CPT are lethal”.

Which “sensitivity of cells depleted for EYA4 (MTT)” value [1] does the source give for `NC(=O)NO` [hydroxyurea] here?
Its value is “sensitive”.

For `O=C(c1cc(Cc2n[nH]c(=O)c3ccccc23)ccc1F)N1CCN(C(=O)C2CC2)CC1` [Olaparib], which “sensitivity of cells depleted for EYA4 (survival, MTT)” value [3] is on record?
Its value is “sensitive”.

What about the “lethality / efficacy as single agent” value ([2]; listed as PARPi) of the same molecule?
The value was “not lethal; also recorded: neither PARPi nor CPT are lethal”.

B1: WT: purified wild type RAD51 (protein, UniProt Q06609 2-339, looked up)
DNA repair protein RAD51 …: AMQMQLEANADTSVEEESFGPQPISRLEQCGINANDVKKLEEAGFHTVEAVAYAPKKELINIKGISEAKADKILAEAAKLVPMGFTTATEFHQRRSEIIQITTGSKELDKLLQGGIETGSITEMFGEFRTGKTQICHTLAVTCQLPIDRGGGEGKAMYIDTEGTFRPERLLAVAERYGLSGSDVLDNVAYARAFNTDHQTQLLYQASAMMVESRYALLIVDSATALYRTDYSGRGELSARQMHLARFLRMLLRLADEFGVAVVITNQVVAQVDGAAMFAADPKKPIGGNIIAHASTTRLYLRKGRGETRICKIYDSPCLPEAEAMFAINADGVGDAKD
How did the EC50 [4, 11] turn out when B1 was run?
The EC50 was 515 nM.

What about the EC50 [5, 12] of the same molecule?
The EC50 was 1160 nM.

B2: YF, YF: double-mutant RAD51 (Y54F, Y315F) that cannot be phosphorylated (protein, UniProt Q06609 2-339, looked up, variant Y54F Y315F)
DNA repair protein RAD51 …: B1 DNA repair protein RAD51 … with Y53F, Y314F
Which results are given for B2?
EC50 [4, 11]: 427 nM; EC50 [5, 12]: 561 nM

B3: YD, YD: double phospho-mimetic RAD51 (Y54D, Y315D) (protein, UniProt Q06609 2-339, looked up, variant Y54D Y315D)
DNA repair protein RAD51 …: B1 DNA repair protein RAD51 … with Y53D, Y314D
For B3, which EC50 [4, 11] is on record?
Its EC50 is greater than 5000 nM.

And the EC50 [5, 12]?
Its EC50 is 3070 nM.

B4: 1-365: N-terminally m-cherry-tagged EYA4 (aa 1-365), purified (protein, UniProt O95677 1-365, looked up, fragment)
chain: MEDSQDLNEQSVKKTCTESDVSQSQNSRSMEMQDLASPHTLVGGGDTPGSSKLEKSNLSSTSVTTNGTGGENMTVLNTADWLLSCNTPSSATMSLLAVKTEPLNSSETTATTGDGALDTFTGSVITSSGYSPRSAHQYSPQLYPSKPYPHILSTPAAQTMSAYAGQTQYSGMQQPAVYTAYSQTGQPYSLPTYDLGVMLPAIKTESGLSQTQSPLQSGCLSYSPGFSTPQPGQTPYSYQMPGSSFAPSSTIYANNSVSNSTNFSGSQQDYPSYTAFGQNQYAQYYSASTYGAYMTSNNTADGTPSSTSTYQLQESLPGLTNQPGEFDTMQSPSTPIKDLDERTCRSSGSKSRGRGRKNNPSPPPD
modifications: N-terminal mCherry tag
notes: N-terminally m-cherry-tagged EYA4 (aa 1-365), purified
For B4, which EC50 [4, 13] is on record?
The EC50 was 303 nM.

And the Kd ([4]; ssDNA binding, FIG. 3C)?
Its Kd is 303 nM.

What about the EC50 [5, 14] of the same molecule?
Its EC50 is 733 nM.

What about the Kd ([5]; dsDNA binding, FIG. 3C) of the same molecule?
The Kd was 732 nM.

B5: oligo P1 ssDNA (ssDNA)
DNA: TTATATCCTTTACTTTGAATTCTATGTTTAACCTTTTACTTATTTTGTATTAGCCGGATCCTTATTTCAATTATGTTCAT
Which EC50 [6] does the source give for B5 here?
The EC50 was 427 nM.

And the EC50 [7]?
Its EC50 is 515 nM.

B6: P1/P2 dsDNA (dsDNA)
DNA 1: B5 DNA
DNA 2: ATGAACATAATTGAAATAAGGATCCGGCTAATACAAAATAAGTAAAAGGTTAAACATAGAATTCAAAGTAAAGGATATAA
B6 was tested. Which EC50 [8] did it give?
Its EC50 is 3.07 µM.

What about the EC50 [9] of the same molecule?
The EC50 was 561 nM.

And the EC50 [10]?
The EC50 was 1160 nM.

B7: SQTQ: phosphomimetic EYA4 double mutant in the ATM-ATR consensus site SQTQ (S209D, T211D) (protein, UniProt O95677 1-639, looked up, variant S209D T211D)
Protein phosphatase EYA4: MEDSQDLNEQSVKKTCTESDVSQSQNSRSMEMQDLASPHTLVGGGDTPGSSKLEKSNLSSTSVTTNGTGGENMTVLNTADWLLSCNTPSSATMSLLAVKTEPLNSSETTATTGDGALDTFTGSVITSSGYSPRSAHQYSPQLYPSKPYPHILSTPAAQTMSAYAGQTQYSGMQQPAVYTAYSQTGQPYSLPTYDLGVMLPAIKTESGLDQDQSPLQSGCLSYSPGFSTPQPGQTPYSYQMPGSSFAPSSTIYANNSVSNSTNFSGSQQDYPSYTAFGQNQYAQYYSASTYGAYMTSNNTADGTPSSTSTYQLQESLPGLTNQPGEFDTMQSPSTPIKDLDERTCRSSGSKSRGRGRKNNPSPPPDSDLERVFVWDLDETIIVFHSLLTGSYAQKYGKDPPMAVTLGLRMEEMIFNLADTHLFFNDLEECDQVHIDDVSSDDNGQDLSTYSFATDGFHAAASSANLCLPTGVRGGVDWMRKLAFRYRRVKELYNTYKNNVGGLLGPAKRDAWLQLRAEIEGLTDSWLTNALKSLSIISTRSNCINVLVTTTQLIPALAKVLLYSLGGAFPIENIYSATKIGKESCFERIMQRFGRKVVYVVIGDGVEEEQAAKKHNMPFWRISSHSDLLALHQALELEYL
B7 was tested. Which EC50 [4, 13] did it give?
Its EC50 is 515 nM.

And the Kd ([5]; DNA (type not stated), FIG. 3E)?
Its Kd is greater than 2000 nM.

And the EC50 [5, 14]?
Its EC50 is 2200 nM.
